The source of these data is patent US20200239562A1 (ANAPTYSBIO, published 2020).

The target in the assay is T1, human IL-33 (human, UniProt O95760 112-270, limits assumed).
T1 construct: also called Interleukin-33
T1 sequence (looked up): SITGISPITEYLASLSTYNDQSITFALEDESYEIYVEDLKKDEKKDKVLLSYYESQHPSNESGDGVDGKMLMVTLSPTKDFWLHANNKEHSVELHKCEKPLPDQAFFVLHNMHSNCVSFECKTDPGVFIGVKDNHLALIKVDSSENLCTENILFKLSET
The assay can be described thus: method not stated.

B1: ANB020 (antibody, V domains shown)
VH: QVQLMQSGAEVKKPGASVKVSCKASGYTFTSYWMHWVRQAPGQGLEWMGTIYPRNSNTDYNQKFKARVTMTRDTSTSTVYMELSSLRSEDTAVYYCARPLYYYLTSPPTLFWGQGTLVTVSS
VL: DIQLTQSPSFLSASVGDRVTLTCKASQDVGTAVAWTQQKPGKAPKLLIYWASTRHTGVPSRFSGSGSGTEFTLTISSLQPEDFATYYCQQAKTYPFTFGSGTKLEIK
As usually defined, the Kd is a measure of binding affinity in units of concentration. Higher therefore signals lower affinity. As for B1, the Kd is approximately 1 pM.
